Results reported in PMC10696123 (iScience, 2023).
Positions count from the first letter of the chain named. Names may count otherwise.

Columns and labels:
FleR 1-473 [1] = molecular target: FleR 1-473 (UniProt Q9I4N3); assay: small-angle X-ray scattering; details: reference: non-phosphorylated FleR D53A; sites D53
FleR 1-473 [2] = molecular target: FleR 1-473 (UniProt Q9I4N3); assay: dynamic light scattering; details: reference: wild type FleRFL, acetyl phosphate treated; sites D53
cross-linking = molecular target: the molecule itself; assay: cross-linking
SAXS = molecular target: the molecule itself; assay: SAXS

FleR 1-473 (from UniProt Q9I4N3) acetyl phosphate-phosphorylated FleR S150F
other: SAXS molecular mass (Bayesian inference) (FleR 1-473 [1]): stronger; reference 113650

FleR 1-473 (from UniProt Q9I4N3) FleR D53A, acetyl phosphate treated
other: hydrodynamic diameter (FleR 1-473 [2]): weaker; reference 23.17 ± 0.58

B1: DNA-binding domain of FleR (FleRDBD, residues 412-473) (domain or fragment, Pseudomonas aeruginosa (PAO1 strain), UniProt Q9I4N3 412-473, looked up)
chain: SGALGDDLRRREFQVIIDTLRTERGRRKEAAERLGISPRTLRYKLAQMRDAGMDVEAYLYAI
stoichiometry N (cross-linking): 2

B2: FleR D53A, non-phosphorylated, full length (natural protein, Pseudomonas aeruginosa (PAO1 strain), UniProt Q9I4N3 1-473, looked up)
chain: MAAKVLLVEDDRALREALSDTLLLGGHEFVAVDSAEAALPVLAREAFSLVISAVNMPGMDGHQLLGLIRTRYPHLPVLLMTAYGAVDRAVEAMRQGAADYLVKPFEARALLDLVARHALGQLPGSEEDGPVALEPASRQLLELAARVARSDSTVLISGESGTGKEVLANYIHQQSPRAGKPFIAINCAAIPDNMLEATLFGHEKGSFTGAIAAQPGKFELADGGTILLDEISEMPLGLQAKLLRVLQEREVERVGARKPINLDIRVLATTNRDLAAEVAAGRFREDLYYRLSVFPLAWRPLRERPADILPLAERLLRKHSRKMNLGAVALGPEAAQCLVRHAWPGNVRELDNAIQRALILQQGGLIQPADLCLTAPIGMPLAAPVPVPMPAMPPATPPSVEIPSPAAGQDASGALGDDLRRREFQVIIDTLRTERGRRKEAAERLGISPRTLRYKLAQMRDAGMDVEAYLYAI
stoichiometry N (SAXS): 2

B3: FleR S150F, full length, phosphorylated with acetyl phosphate (natural protein, Pseudomonas aeruginosa (PAO1 strain), UniProt Q9I4N3 1-473, looked up)
chain: B2 chain with A53D, S150F
modifications: phosphorylated by acetyl phosphate (site D53)
stoichiometry N (SAXS): 7
